We go through four molecules from patent US20250213710A1 (PHENOMIC AI, published 2025).

The target in test [1] is integrin αV on ovarian cancer cells (SKOV3) (human) (UniProt P06756). Briefly: cell-based or functional assay.
Test [2] addresses integrin β1 on ovarian cancer cells (SKOV3) (human) (UniProt P05556). Put plainly: cell-based or functional assay.
The target in test [3] is recombinant human CTHRC1 (Collagen Triple Helix Repeat Containing 1) (human) (UniProt Q96CG8). Put plainly: cell-based or functional assay.
Test [4] has as its target T1, mouse CTHRC1 (mouse, UniProt Q9D1D6 33-245, limits assumed).
T1 construct: also called muCTHRC1
Briefly: binding EC50 on muCTHRC1 (assay not named).

Test [5] addresses recombinant human CTHRC1 (Collagen Triple Helix Repeat Containing 1) (human) (UniProt Q96CG8). Briefly: binding EC50 on huCTHRC1 (assay not named).
In test [6] the target is T2, rat CTHRC1 (rat, UniProt Q8CG08 33-245, limits assumed). Put plainly: binding EC50 on rat CTHRC1 (assay not named).
The target in test [7] is T1, mouse CTHRC1. Put plainly: assay not named (Table 2 EC50 columns show n/a).
Test [8] concerns the target T2, rat CTHRC1. Briefly: assay not named (Table 2 EC50 columns show n/a).

Sequence of recombinant human CTHRC1 (Collagen Triple Helix Repeat Containing 1) (human) (Q96CG8 31-243): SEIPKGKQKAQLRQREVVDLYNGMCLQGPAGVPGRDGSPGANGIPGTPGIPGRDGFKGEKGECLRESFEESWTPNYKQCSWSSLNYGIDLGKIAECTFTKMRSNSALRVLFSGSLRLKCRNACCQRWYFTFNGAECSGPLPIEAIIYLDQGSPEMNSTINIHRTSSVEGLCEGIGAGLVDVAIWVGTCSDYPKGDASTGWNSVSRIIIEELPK
T1 sequence (Q9D1D6 33-245 limits assumed): as the sequence (Q96CG8 31-243) above, with I3N, G6V, Q11L, L12I, M155L counted along it
T2 sequence (Q8CG08 33-245 limits assumed): as the sequence (Q96CG8 31-243) above, with I3N, G6V, Q11L, L12I, M155L counted along it
Sequence of integrin β1 on ovarian cancer cells (SKOV3) (human) (P05556 21-798): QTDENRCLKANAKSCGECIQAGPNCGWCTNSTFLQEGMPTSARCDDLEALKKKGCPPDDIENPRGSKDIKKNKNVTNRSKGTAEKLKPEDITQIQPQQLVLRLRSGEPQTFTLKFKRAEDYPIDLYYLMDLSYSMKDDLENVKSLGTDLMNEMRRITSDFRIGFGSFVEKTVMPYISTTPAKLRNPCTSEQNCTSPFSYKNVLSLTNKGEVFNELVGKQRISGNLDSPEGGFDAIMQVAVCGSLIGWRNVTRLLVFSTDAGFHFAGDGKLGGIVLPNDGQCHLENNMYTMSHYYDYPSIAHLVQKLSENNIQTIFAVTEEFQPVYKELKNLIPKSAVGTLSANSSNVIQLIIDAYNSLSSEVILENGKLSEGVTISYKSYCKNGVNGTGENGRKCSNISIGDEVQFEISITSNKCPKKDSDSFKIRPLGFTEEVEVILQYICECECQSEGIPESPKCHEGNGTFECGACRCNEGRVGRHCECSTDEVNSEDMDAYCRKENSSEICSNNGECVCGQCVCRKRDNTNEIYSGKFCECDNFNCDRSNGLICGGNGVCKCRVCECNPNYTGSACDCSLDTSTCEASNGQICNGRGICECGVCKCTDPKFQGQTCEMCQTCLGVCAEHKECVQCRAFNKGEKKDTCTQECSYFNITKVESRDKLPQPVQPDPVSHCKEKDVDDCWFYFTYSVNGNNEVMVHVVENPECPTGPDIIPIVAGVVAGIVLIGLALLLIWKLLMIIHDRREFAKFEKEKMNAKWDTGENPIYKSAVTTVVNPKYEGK
Sequence of integrin αV on ovarian cancer cells (SKOV3) (human) (P06756 31-1048): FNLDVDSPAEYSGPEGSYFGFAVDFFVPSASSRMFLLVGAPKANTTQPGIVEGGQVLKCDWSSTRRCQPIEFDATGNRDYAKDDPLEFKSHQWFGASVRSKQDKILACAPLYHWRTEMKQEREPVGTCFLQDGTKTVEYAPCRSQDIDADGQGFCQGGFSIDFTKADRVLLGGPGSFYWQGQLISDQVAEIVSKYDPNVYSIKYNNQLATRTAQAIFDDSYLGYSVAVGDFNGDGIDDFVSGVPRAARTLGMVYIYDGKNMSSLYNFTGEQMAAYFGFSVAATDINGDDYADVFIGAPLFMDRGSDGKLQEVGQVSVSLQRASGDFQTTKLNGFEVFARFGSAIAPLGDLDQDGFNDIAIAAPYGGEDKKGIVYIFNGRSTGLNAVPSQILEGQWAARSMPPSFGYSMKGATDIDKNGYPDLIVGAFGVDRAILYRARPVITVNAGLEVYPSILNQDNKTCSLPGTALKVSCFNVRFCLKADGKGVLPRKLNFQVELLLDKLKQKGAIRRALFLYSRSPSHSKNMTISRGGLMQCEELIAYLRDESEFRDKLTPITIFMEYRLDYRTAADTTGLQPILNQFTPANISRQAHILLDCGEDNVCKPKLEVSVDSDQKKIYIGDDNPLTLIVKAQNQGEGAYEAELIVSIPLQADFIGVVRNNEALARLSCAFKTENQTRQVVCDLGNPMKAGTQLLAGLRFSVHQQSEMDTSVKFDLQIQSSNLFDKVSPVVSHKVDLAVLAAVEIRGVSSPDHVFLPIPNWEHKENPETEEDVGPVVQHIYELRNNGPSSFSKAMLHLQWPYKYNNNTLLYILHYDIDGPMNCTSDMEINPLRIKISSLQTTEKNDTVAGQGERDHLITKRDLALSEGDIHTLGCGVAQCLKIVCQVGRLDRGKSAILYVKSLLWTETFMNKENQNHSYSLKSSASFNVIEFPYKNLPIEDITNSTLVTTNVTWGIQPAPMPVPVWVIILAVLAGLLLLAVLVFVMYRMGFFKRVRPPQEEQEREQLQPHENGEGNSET

Regarding “recombinant human CTHRC1 (Collagen Triple Helix Repeat Containing 1) (from UniProt Q96CG8 31-243)”, in test [1], the cell adhesion of ovarian cancer cells to CTHRC1 after 1 hour with 100 nM integrin αV antibody was determined as 2 fold; the cell adhesion of ovarian cancer cells to CTHRC1 after 1 hour with a combination of integrin β1 antibody and integrin αV antibody was 2 fold; the decrease in cell adhesion of ovarian cancer cells to CTHRC1 after 1 hour with 100 nM integrin αV antibody was determined as 40%. In addition, in test [2], the cell adhesion of ovarian cancer cells to CTHRC1 after 1 hour with 100 nM integrin β1 antibody is 2 fold; the cell adhesion of ovarian cancer cells to CTHRC1 after 1 hour with a combination of integrin β1 antibody and integrin αV antibody was found to be 2 fold; the decrease in cell adhesion of ovarian cancer cells to CTHRC1 after 1 hour with 100 nM integrin β1 antibody came to 75%.

B1: CTHRC1S-M5 (AB987) (antibody, V domains shown)
VH: EVQLVESGGGLVTPGGSLRLSCAASGFTFSTYSMNWVRQAPGKGLEWVSSISGSSGHIYYADSVRGRFTISRDNAKNSLYLQMNSLRAEDTAVYYCASMHYYYYLDVWGKGTTVTVSS
VL: QAVVTQESALTTSPGETVTLTCRSSTGTVTTSNYVTWVQEKPDHLFTGLIGATNNRAPGVPARFSGSLIGDKAALTITGAQTEDEAIYFCALWYSNHWVFGGGTKLTVL
notes: Monoclonal antibody purified from a hybridoma of a humanized transgenic mouse immunized with rhCTHRC1; also called CTHRCIS-M5; anti-CTHRC1 clone M5
What is called EC50 is the midpoint of the concentration-response curve. Take B1: the blocking of cell adhesion to CTHRC1 (cell adhesion assay) in test [3] was over 50%. Further, the EC50 in test [4] worked out at 0.26 nM; in test [5] it was 1.85 nM; in test [6], 1.73 nM.

B2: CTHRC1S-M14 (AB991) (antibody, V domains shown)
VH: EVQVVESGGGLVQPGGSLRLSCAASRFTFSNYWMSWVRQAPGRGLEWVANIKQDGSEKYYVDSVKGRFTISRDNAKNSLYLQMNSLRAEDTAVYYCAREGGYCSDTRCFFYMDVWGKGTTVTVSS
VL: DIQMTQSPSTLSASVGDRVTITCRASQSIISWLAWYQQKPGKAPKLLIYKASSLEGGVPSRFSGSGSGTDFTLTISSLQPDDFATYYCQQYNSYSRTFGQGTTVEIK
notes: Monoclonal antibody purified from a hybridoma of a humanized transgenic mouse; also called anti-CTHRC1 clone M14
As to B2, the concentration for a half-maximal effect (EC50) in test [4] amounted to 0.94 nM; in test [5] it was 0.05 nM; in test [6], 0.05 nM.

B3: CTHRC1S-M11 (AB989) (antibody, V domains shown)
VH: QVTLRESGPALVKPTQTLTLTCTFSGFSLSTNVMCVSWIRQPPGKALEWLALIDWDDDKYYSTSLKTRLTISKDTSKNQVVLTMTNMDPVDTATYYCARTGITGTHYYYYYMDVWGKGTTVTVSS
VL: AIQMTQSPSSLSASVGDRVTITCRASQGIRNDLGWYQQKPGKAPKLLIYAASSLQSGVPSRFSGSGFGTDFTLTISSLQPEDFATYYCLQDYNYPWTFGQGTKVEIK
notes: Monoclonal antibody purified from a hybridoma of a humanized transgenic mouse; also called CTHRCIS-M11
For B3, the blocking of cell adhesion to CTHRC1 (cell adhesion assay) in test [3] is over 50%. For the same molecule, the binding result in test [7] and in test [8] was “no binding” each time. The EC50 in test [5] was determined as 9.76 nM.
